Measurements published in the supplement of paper PMC9112550, “Optimization of the antimicrobial peptide Bac7 by deep mutational scanning” (BMC Biology, 2022).

Each sequence was assayed on Escherichia coli TOP10 (assay: shrunken log2 fold change of peptide-encoding DNA abundance (4.5 h post-induction vs induction); higher = less antimicrobial activity (less host growth inhibition)). Details: time post-induction: 4.5 h; library: site-saturation at positions 5, 18, 19, 20.
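Further: peptides expressed intracellularly from a pBAD plasmid library in pooled LB shake-flask culture, induced with 0.3% L-arabinose, DNA abundance read by NGS, three biological replicates, DESeq2 with apeglm shrinkage.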

Sequence	shrunken log2 fold change
RRIRQRPPRLPRPRPRPFMNPRP	-0.148
RRIRNRPPRLPRPRPRPKIIPRP	-0.118
RRIRARPPRLPRPRPRPYRDPRP	-0.761
RRIRNRPPRLPRPRPRPADIPRP	-0.183
RRIRVRPPRLPRPRPRPETSPRP	-0.369
RRIRVRPPRLPRPRPRPMPEPRP	-0.192
RRIRVRPPRLPRPRPRPLRFPRP	0.571
RRIRWRPPRLPRPRPRPRMRPRP	1.03
RRIRYRPPRLPRPRPRPTKGPRP	-0.136
RRIRFRPPRLPRPRPRPIDCPRP	-0.046
RRIRYRPPRLPRPRPRPYYIPRP	-1.83
RRIRRRPPRLPRPRPRPFVNPRP	-0.049
RRIRQRPPRLPRPRPRPLCSPRP	-0.0385
RRIRTRPPRLPRPRPRPIEFPRP	0.0274
RRIRSRPPRLPRPRPRPGPMPRP	0.34
RRIRQRPPRLPRPRPRPTEYPRP	-0.401
RRIRSRPPRLPRPRPRPKAAPRP	0.252
RRIRNRPPRLPRPRPRPLKAPRP	-0.0472
RRIRFRPPRLPRPRPRPSKDPRP	-0.347
RRIRVRPPRLPRPRPRPGGEPRP	0.386

Sequence	shrunken log2 fold change
RRIRSRPPRLPRPRPRPYDEPRP	0.0261
RRIRMRPPRLPRPRPRPHYRPRP	-0.223
RRIRARPPRLPRPRPRPWRQPRP	0.0426
RRIRSRPPRLPRPRPRPHITPRP	-0.734
RRIRKRPPRLPRPRPRPYLDPRP	-0.0998
RRIRARPPRLPRPRPRPGILPRP	0.287
RRIRYRPPRLPRPRPRPVQGPRP	-0.0822
RRIRMRPPRLPRPRPRPEKFPRP	-0.000921
RRIRMRPPRLPRPRPRPELTPRP	3.52
RRIRGRPPRLPRPRPRPMHAPRP	1.66
RRIRFRPPRLPRPRPRPDYDPRP	-0.0802
RRIRTRPPRLPRPRPRPQKYPRP	-0.263
RRIRPRPPRLPRPRPRPTFEPRP	0.035
RRIRLRPPRLPRPRPRPFLGPRP	-0.0654
RRIRKRPPRLPRPRPRPQCHPRP	0.273
RRIRIRPPRLPRPRPRPFGAPRP	-0.143
RRIRVRPPRLPRPRPRPMAKPRP	0.0605
RRIRLRPPRLPRPRPRPNLHPRP	-0.347
RRIRMRPPRLPRPRPRPEPLPRP	0.277
RRIRQRPPRLPRPRPRPVHLPRP	0.00299

Sequence	shrunken log2 fold change
RRIRVRPPRLPRPRPRPKKIPRP	0.0852
RRIRMRPPRLPRPRPRPYEEPRP	-0.228
RRIRDRPPRLPRPRPRPRHGPRP	-0.0452
RRIRMRPPRLPRPRPRPSCSPRP	-0.0918
RRIRVRPPRLPRPRPRPEETPRP	0.00893
RRIRHRPPRLPRPRPRPQSDPRP	0.0136
RRIRHRPPRLPRPRPRPNCKPRP	-0.211
RRIRQRPPRLPRPRPRPRDSPRP	0.0142
RRIRERPPRLPRPRPRPQHYPRP	-0.398
RRIRTRPPRLPRPRPRPSTIPRP	-0.386
RRIRPRPPRLPRPRPRPSYTPRP	-0.868
RRIRGRPPRLPRPRPRPPFQPRP	0.358
RRIRRRPPRLPRPRPRPKERPRP	-0.327
RRIRWRPPRLPRPRPRPMHPPRP	0.224
RRIRYRPPRLPRPRPRPHCQPRP	-0.297
RRIRQRPPRLPRPRPRPQSCPRP	0.00408
RRIRPRPPRLPRPRPRPVTPPRP	0.125
RRIRVRPPRLPRPRPRPFAMPRP	-0.252
RRIRKRPPRLPRPRPRPFPYPRP	-0.135
RRIRCRPPRLPRPRPRPYFTPRP	-0.774
